The target in assay [1] is T1, peptide of sequence no. 1 (GEPGDDAPS, amino acid nos. 757 to 765 of human type 2 collagen) (human, also: biotin-labeled in DELFIA screening, immunogen form had a C-terminal cysteine added).
T1 construct: also called biotin-labeled target antigen peptide
T1 peptide: GEPGDDAPS
The experiment in a line: characterisation of the antibody (peptide immunisation and DELFIA screening). On the procedure:
(§1) The screening was done using the time-resolved fluorescence immunoassay (DELFIA, Amersham, registered trademark) described below. 50 μl measurement buffer solution (50 mM tris hydrochloric acid buffer solution (pH 7.5) containing 150 mM NaCl, 0.01% Tween80, 0.5% BSA and 0.05% NaN₃), 50 μl culture supernatant and 50 μl labeled antigen (measurement buffer solution containing 20 ng/ml biotin-labeled target antigen peptide and 100 ng/ml europium-labeled streptoavidine (manufactured by Perkin-Elmer Life Science)) were consecutively added to microtiter plates (manufactured by Sumitomo Bakelite) with solidified anti-mouse IgG antibodies (manufactured by Shibayagi), and a reaction was conducted at 4° C. for 16 hours. After washing the plates twice using 200 μl washing solution (150 mM NaCl, 0.02% NaN₃ and 0.01% Tween20), 150 μl enhancement solution (manufactured by Perkin-Elmer Life Science) were added, and the time-resolved fluorescence was measured using 1420ARVOsx Multilabel Counter (manufactured by Perkin-Elmer Life Science). One well with high reactivity was selected by means of this screening, cloning was repeated twice using the limiting dilution method, and the presence of antibody-producing hybridoma TAG-6G4 was established. […]

Assay [2] concerns the target T2, peptide of sequence no. 2 (GPPGPQG, amino acid nos. 769 to 775 of human type 2 collagen) (human, also: immunogen form had an N-terminal cysteine added).
T2 peptide: GPPGPQG
The assay is described as above. On the procedure:
as §1

Ends that are not written are not given here.

B1: 6G4 antibody (monoclonal antibody produced by hybridoma TAG-6G4) (antibody, mouse IgG1, V domains shown)
VH: EVQLVESGGSLVQPGGSLKLSCAASGFTFNNYGMSWVRQIPDKRLELVATITGNGHSTYYPVSVRGRFTISRDNAKNTLYLQMSSLKSEDTAMYYCVRGYSNFAFWGQGTTLTVSS
VL: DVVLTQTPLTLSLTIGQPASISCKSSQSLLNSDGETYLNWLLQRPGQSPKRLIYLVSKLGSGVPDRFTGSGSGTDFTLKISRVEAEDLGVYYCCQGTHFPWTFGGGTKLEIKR
notes: Mouse IgG1(k), 150 kDa, H chain 50 kDa and L chain 27 kDa; It was labeled with europium cryptate for the HTRF assay; also called 6G4 antibodies; cryptate-labeled 6G4 antibodies
As for B1, the binding result in assay [1] is “binds”.

B2: 2E6 antibody (monoclonal antibody produced by hybridoma TAG-2E6) (antibody, V domains shown)
VH: QVTLKESGPGILQPSQTLSLTCSFSGFSLSTYGMGVGWIRQPSGKGLEWLAHIWWNDNKYYNTTLKSRLTISKDTSNKQVFLKIASVDTADTATYYCARIERWDPWFAYWGQGTLVTVSA
VL: DVVMTQTPLSLPVSLGDQASISCRSSQSLVYSNGNTYFHWYLQKPGQSPKLLIYKVSNRFSGVPDRFSGSGSGTDFTLKISRVEAEDLGVYFCSQSTHVPLTFGAGTKLELKR
notes: Mouse IgG2b(k), 150 kDa, H chain 50 kDa and L chain 27 kDa; It was labeled with XL665 for the HTRF assay and immobilised on a carrier column for purification; also called 2E6 antibodies; XL665-labeled 2E6 antibodies
Consider B2, for which the binding result in assay [2] was “binds”.

Source of the values: US20090298196A1 (published 2009).
